Where two headings read alike, the source gives them in different places.

We go through 4 molecules from patent US20100297093A1.

Experiment [1] deals with MART-1:27-35 peptide presented by HLA-A2 on target cells (UniProt Q16655). The experiment is described as follows: cell-based or functional assay.
In experiment [2] the target is MART-1 peptide on HLA-A*02:01 (human). The experiment is described as follows: peptide titration, transfected CD4+ T cells, peptide-pulsed target cells; upper bound 100 fold; minimal effect in CD8+ T cells; full-length, on cells.
The target of experiment [3] is MART-1:27-35 peptide presented by HLA-A2 on target cells (UniProt Q16655). The experiment is described as follows: cell-based or functional assay. The source holds these as a separate data set.

Take DMF4 TCR, WT α + β51:A (G51A): in experiment [1], the IFN-γ; CD4+ T; 624.38 came out at 15800 pg/mL, the IFN-γ; CD4+ T; 1300 came out at 11200 pg/mL, the IFN-γ; CD8+ T; 624.38 is 32800 pg/mL and the IFN-γ; CD8+ T; 1300 worked out at 78000 pg/mL. In experiment [1], the peptide titration; CD4+ T; fold lower MART-1:27-35 concentration recognized vs WT DMF4 was 10 to 100 fold.

For DMF4 β51:A, the fold lower peptide concentration recognised than with the WT TCR in experiment [2] is over 10 fold.

In experiment [1], “DMF4 anti-MART-1 TCR, wild type α and β chains” gave an IFN-γ; CD4+ T; 624.38 of 3220 pg/mL, an IFN-γ; CD4+ T; 1300 of 3480 pg/mL, an IFN-γ; CD8+ T; 624.38 of 47700 pg/mL and an IFN-γ; CD8+ T; 1300 of 32800 pg/mL.

B1: DMF4 TCR, αLA (T93L/G94A) + WT β (TCR, part only; not given: wild type beta chain, part only)
TCR alpha: GQQLNQSPQSMFIQEGEDVSMNCTSSSIFNTWLWYKQDPGEGPVLLIALYKAGELTSNGRLTAQFGITRKDSFLNISASIPSDVGIYFCAGGLANQFYFGTGTSLTVIPNIQNPDPAVYQLRDSKSSDKSVCLFTDFDSQTNVSQSKDSDVYITDKTVLDMRSMDFKSNSAVAWSNKSDFACANAFNNSIIPEDTFFPSPESSCDVKLVEKSFETDTNLNFQNLSVIGFRILLLKVAGFNLLMTLRLWSS
In experiment [3], B1 displayed an IFN-γ; CD4+ T; 624.38 of 20400 pg/mL, an IFN-γ; CD4+ T; 1300 of 11100 pg/mL, an IFN-γ; CD8+ T; 624.38 of 36400 pg/mL and an IFN-γ; CD8+ T; 1300 of 91800 pg/mL.
